The values that follow come from article PMC10397247.

One test concerns the target T1, APC9182-AA.
T1 chain: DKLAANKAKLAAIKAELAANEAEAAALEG
As to the kind of experiment: two-hybrid library CCmax.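 Further: natural log of median RNA to DNA barcode read ratio; higher means stronger binding.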 Particulars: mean of both orientations.

A further test addresses T2, APC5009-AA.
T2 chain: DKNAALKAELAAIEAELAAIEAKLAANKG
The test is described as follows: two-hybrid library CCmax.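 Further: natural log of median RNA to DNA barcode read ratio; higher means stronger binding.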

In a further test the target is T3, APC4100-AA.
T3 chain: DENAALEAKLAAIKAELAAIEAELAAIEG
As to the kind of experiment: two-hybrid library CCmax.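 Further: natural log of median RNA to DNA barcode read ratio; higher means stronger binding.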 The note with it: mean of both orientations.

Another test concerns the target T4, APC6088-AA.
T4 chain: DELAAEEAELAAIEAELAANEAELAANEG
As to the kind of experiment: two-hybrid library CCmax.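 Further: natural log of median RNA to DNA barcode read ratio; higher means stronger binding.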 The note with it: mean of both orientations.

For a further test, the target named is T5, APC5531-AA.
T5 chain: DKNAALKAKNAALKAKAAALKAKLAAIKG
As to the kind of experiment: two-hybrid library CCmax. Particulars: mean of both orientations.

The next test addresses T6, APC9141-AA.
T6 chain: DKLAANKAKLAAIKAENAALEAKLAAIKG
As to the kind of experiment: two-hybrid library CCmax. Particulars: mean of both orientations.

For a further test, the target named is T7, APC9806-AA.
T7 chain: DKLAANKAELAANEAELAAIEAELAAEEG
The test is described as follows: two-hybrid library CCmax. Particulars: mean of both orientations.

A further test concerns the target T8, APC4336-AA.
T8 chain: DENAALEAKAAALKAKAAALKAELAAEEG
The test is described as follows: two-hybrid library CCmax. Particulars: mean of both orientations.

The target in a further test is T9, APC3881-AA.
T9 chain: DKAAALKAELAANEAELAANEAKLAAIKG
The test is described as follows: two-hybrid library CCmax.

For the next test, the target named is T10, APC9291-AA.
T10 chain: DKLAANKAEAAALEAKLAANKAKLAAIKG
The test is described as follows: two-hybrid library CCmax. The note with it: mean of both orientations.

The target of another test is T11, APC8401-AA.
T11 chain: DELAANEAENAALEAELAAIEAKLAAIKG
As to the kind of experiment: two-hybrid library CCmax. Particulars: mean of both orientations.

A further test addresses T12, APC8516-AA.
T12 chain: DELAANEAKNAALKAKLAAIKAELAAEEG
As to the kind of experiment: two-hybrid library CCmax. Particulars: mean of both orientations.

The target of a further test is T13, APC542-AA.
T13 chain: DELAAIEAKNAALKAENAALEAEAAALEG
As to the kind of experiment: two-hybrid library CCmax. Particulars: mean of both orientations.

Another test addresses T14, APC7524-AA.
T14 chain: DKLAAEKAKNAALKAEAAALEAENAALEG
The test is described as follows: two-hybrid library CCmax. The note with it: mean of both orientations.

The target of a further test is T15, APC7099-AA.
T15 chain: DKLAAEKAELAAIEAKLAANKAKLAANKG
The test is described as follows: two-hybrid library CCmax. Particulars: mean of both orientations.

The target of a further test is T16, APC4436-AA.
T16 chain: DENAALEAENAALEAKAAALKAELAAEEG
The test is described as follows: two-hybrid library CCmax. The note with it: mean of both orientations.

Another test has as its target T17, APC8910-AA.
T17 chain: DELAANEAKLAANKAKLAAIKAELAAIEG
As to the kind of experiment: two-hybrid library CCmax. Particulars: mean of both orientations.

The next test concerns the target T18, APC8191-AA.
T18 chain: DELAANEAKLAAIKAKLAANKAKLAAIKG
As to the kind of experiment: two-hybrid library CCmax.

For a further test, the target named is T19, APC4011-AA.
T19 chain: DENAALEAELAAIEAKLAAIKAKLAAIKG
As to the kind of experiment: two-hybrid library CCmax.

The target in the next test is T20, APC6108-AA.
T20 chain: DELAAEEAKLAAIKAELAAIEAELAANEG
As to the kind of experiment: two-hybrid library CCmax. The note with it: mean of both orientations.

The target of another test is T21, APC5383-AA.
T21 chain: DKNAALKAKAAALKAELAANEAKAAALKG
The test is described as follows: two-hybrid library CCmax. The note with it: mean of both orientations.

In the next test the target is T22, APC9096-AA.
T22 chain: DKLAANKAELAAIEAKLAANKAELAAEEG
The test is described as follows: two-hybrid library CCmax. Particulars: mean of both orientations.

The next test concerns the target T23, APC4264-AA.
T23 chain: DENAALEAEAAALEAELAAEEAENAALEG
As to the kind of experiment: two-hybrid library CCmax. The note with it: mean of both orientations.

The target in a further test is T24, APC9319-AA.
T24 chain: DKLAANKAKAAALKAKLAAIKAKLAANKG
As to the kind of experiment: two-hybrid library CCmax. Particulars: mean of both orientations.

The target of a further test is T25, 4H953-bA.
T25 chain: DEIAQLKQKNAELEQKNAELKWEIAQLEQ
The test is described as follows: two-hybrid library CCNG1.

Another test concerns the target T26, 4H72-bA.
T26 chain: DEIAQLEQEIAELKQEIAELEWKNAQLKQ
The test is described as follows: two-hybrid library CCNG1.

Another test concerns the target T27, 4H797-bA.
T27 chain: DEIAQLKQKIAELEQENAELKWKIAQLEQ
The test is described as follows: two-hybrid library CCNG1.

Another test concerns the target T28, 4H607-bA.
T28 chain: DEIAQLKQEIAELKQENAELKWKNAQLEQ
The test is described as follows: two-hybrid library CCNG1.

The next test addresses T29, 4H967-bA.
T29 chain: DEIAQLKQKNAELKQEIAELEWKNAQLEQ
The test is described as follows: two-hybrid library CCNG1.

A further test addresses T30, 4H4001-bA.
T30 chain: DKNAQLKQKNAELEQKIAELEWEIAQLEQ
As to the kind of experiment: two-hybrid library CCNG1.

The target in a further test is T31, 4H754-bA.
T31 chain: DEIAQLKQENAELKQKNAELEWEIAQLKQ
The test is described as follows: two-hybrid library CCNG1.

Another test deals with T32, 4H568-bA.
T32 chain: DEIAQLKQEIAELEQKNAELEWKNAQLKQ
As to the kind of experiment: two-hybrid library CCNG1.

For a further test, the target named is T33, 4H908-bA.
T33 chain: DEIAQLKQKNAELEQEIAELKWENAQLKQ
As to the kind of experiment: two-hybrid library CCNG1.

For a further test, the target named is T34, 4H918-bA.
T34 chain: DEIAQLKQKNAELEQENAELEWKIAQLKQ
The test is described as follows: two-hybrid library CCNG1.

For a further test, the target named is T35, 4H883-bA.
T35 chain: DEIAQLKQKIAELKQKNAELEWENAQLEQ
As to the kind of experiment: two-hybrid library CCNG1.

The target in another test is T36, 4H454-bA.
T36 chain: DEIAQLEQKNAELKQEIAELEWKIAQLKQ
The test is described as follows: two-hybrid library CCNG1.

The next test has as its target T37, 4H687-bA.
T37 chain: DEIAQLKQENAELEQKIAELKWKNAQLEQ
As to the kind of experiment: two-hybrid library CCNG1.

For another test, the target named is T38, 4H717-bA.
T38 chain: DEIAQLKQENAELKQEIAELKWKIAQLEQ
As to the kind of experiment: two-hybrid library CCNG1.

The next test has as its target T39, 4H462-bA.
T39 chain: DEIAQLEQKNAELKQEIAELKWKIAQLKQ
The test is described as follows: two-hybrid library CCNG1.

B1: APC3881-AA (peptide)
chain: DKAAALKAELAANEAELAANEAKLAAIKG
Turning to B1, the interaction score was -1.63 in the test with APC9182-AA; -1.15 in the test with APC5009-AA; -1.25 with APC4100-AA; -1.78 with APC6088-AA; -1.92 in the test with APC5531-AA; -1.38 with APC9141-AA. Moreover, the interaction score with APC9806-AA was -1.72; in the test with APC4336-AA, -1.5; with APC3881-AA, -1.67; with APC9291-AA it was -2.12; with APC8401-AA it was -1.61; with APC8516-AA, -1.39. For the same molecule, the values for the interaction score in the test with APC542-AA and with APC7524-AA were -1.63 and -1.49, respectively.

B2: APC4011-AA (peptide)
chain: DENAALEAELAAIEAKLAAIKAKLAAIKG
Consider B2, for which the interaction score with APC7099-AA was -1.45; with APC4436-AA, -1.48; with APC8910-AA, -1.43; with APC8191-AA, -1.55; with APC4011-AA it was 2.04; with APC6108-AA it was 0.352. Besides, the interaction score with APC5383-AA is -1.52; with APC9096-AA, -1.88; with APC4264-AA, -1.72; with APC9319-AA it was -1.27.

B3: 4H4001-bA (peptide)
chain: DKNAQLKQKNAELEQKIAELEWEIAQLEQ
With B3, the interaction score in the test with 4H953-bA was -1.52; in the test with 4H72-bA it was -1.27; with 4H797-bA it was -1.28; with 4H607-bA, -1.34; in the test with 4H967-bA, -1.03; in the test with 4H4001-bA, -0.927. The interaction score with 4H754-bA was -1.03; in the test with 4H568-bA, -1.47; with 4H908-bA it was -0.992; with 4H918-bA, -1.15; with 4H883-bA, -0.688; with 4H454-bA, 1.01. Besides, the interaction score in the test with 4H687-bA was -1.34; with 4H717-bA, -2.02; with 4H462-bA it was -0.0948.
